From the domain aggregation screens of Martell et al. (2025)

Experiment: soluble fraction after stress (log2 fold change); higher = more stays soluble; pooled small domains, quantitative proteomics
Settings: stress: 50 degC
Procedure, shortened: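 After stress at 50°C, the amount of each protein still soluble was measured. This was done on pooled custom libraries of small protein domains, using high-throughput quantitative proteomics. The figure given is a base-two log fold change and stands for aggregation propensity, with higher values meaning more protein stays in solution.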
For “HMAVSDAAEEYGKAGTPLVILAGKEYGSGSSRDWAAKGPYLQGVRAVLAESYERIHRSNLVGMGIVPLTYK”, the “soluble fraction (log2)” value was 0.0654.
In the case of “HMKFDVNAAIRAVLNVTVDKGATLERIMKETNLTSDQLVLPIALLMKTERLHFKRSGTHEVYVSVGKAPDK”, the “soluble fraction (log2)” value is reported as -3.02.
In the case of “HMEFLLAIQPFVLLTDHANLTFLREQTDSMMKRIQINISGFEIEFRYVPGLTNILPDKMSRV”, the “soluble fraction (log2)” value is reported as -0.0431.
In the case of “HMEGNFFADIRQELMRELDQEAEWSDVQILEKIDDLVLLRTRRSSLTVNEKEQLRKELFYSVRK”, the “soluble fraction (log2)” value is reported as -0.0909.
For “HMYSMSAPMPGVILEIKVAPGDQVNKGDVVMVLEAMKMKNDLHAARTGTVESIDINSGEQVKYGQVLLRFV”, the “soluble fraction (log2)” value was -0.14.
For “HMPRYQQIARQLKTAIEHGELKPGARLPSSRTWSQELGISRSTVESAYTELVAQGWLERRGQAGTFVSAQL”, the “soluble fraction (log2)” value was -0.749.
For “HMINLGDLEVGHTYHTRMPILQNDLKYSHKSPIQIVAEHSIVYGVRVYIGFLNEHRVLVTADDV”, the “soluble fraction (log2)” value was 0.0223.
For “HMNRIARRELMEQLFADNKITTQEQLQQLLRAEGVEVTQATISRDMRILNIVKVSDQNGNTYYKQMK”, the “soluble fraction (log2)” value was -0.15.
With “HMSVLLKEEGSLQLARHGAAYFIIYSAQEHPNQRRHLKISEEESNRIMEGTPIEEIFLAYSG” the “soluble fraction (log2)” value was -0.291.
In the case of “HMDNEIRIPLPSLQRDGFSIGTREDDGSQLVRIMSAGSFGGMIRSFRLPEGMRIEGAKWEGEIVSIRL”, the “soluble fraction (log2)” value is reported as 0.0774.
For “HMANKLTSTNLAKQHKMGLSEMYAELMNSGYLIEKDGKYELTPLGISIGGESKPNRYKKGEFYFLWPSDIS”, the “soluble fraction (log2)” value was -0.29.
For “HMHQKELLNLSYKEAKRYILDDFERVFFTNLLRKTGGNVSRAAQLAQVHRKNLYVKLTELGIDPRQFG”, the “soluble fraction (log2)” value was -1.43.
For “HMDRYAVRAEELAAALAQYHRHVGVYPENLEDLIAPTGPRGYRGPYLSELPTNPSTSKPDWGYDPATGRVS”, the “soluble fraction (log2)” value was 0.198.
In the case of “HMGSLRSALDGIPGIGEQYQKRLLAQFGSVKAMRSASVEDFEAVRGIGRAKAQALYDALHAG”, the “soluble fraction (log2)” value is reported as -0.131.
With “HMDGISANAVKALIESLIAGEDKRKPLSDQAMSDRLALQGIVLARRTVAKYREELNFPPAHQRKQK” the “soluble fraction (log2)” value was -0.572.
With “HMQNFLSITSKEKIDIGNFQLISFKFENNLYDYVISGNKSELLIFQEKTIENNNENIEKITSNF” the “soluble fraction (log2)” value was -2.06.
In the case of “HMDEVHYLADKERGTTWEEILIHADRDIKFLSLSATINNKNEFLEWLVSLRGTTSLIHSSTRPIPLEI”, the “soluble fraction (log2)” value is reported as 0.218.
With “HMVRSEDLIGLQGRITLATDVETRGFVELSVKGSLLRRPALSLKGPLAKNTAVVVTASNDHTLEVEAL” the “soluble fraction (log2)” value was -0.573.
For “HMQSLAAKINGYIVAQRTSIAAIAKEIGYSRVTVSRYLAGKYDSDPTGIEAKLAAFLAGQTGEE”, the “soluble fraction (log2)” value was -1.75.
For “HMLPGLGPIERAQFMLQAIPGISPTRSAALIDKFGSIAGIAQASIKDIQTIEGIGKKTATTLYEVLNAG”, the “soluble fraction (log2)” value was -0.341.
For “HMTTKYVAVHESKDGYWTIASKPSSKEDAEAMLGGTPKNEVGKVVTLEEAKAHKKTLGEEYLYE”, the “soluble fraction (log2)” value was 0.272.
In the case of “HMSVTIENQINTYFQTRDKISRDELVALIKKDFANWTDNTINIYVSSLQKRGIIHSLSRGMYALGN”, the “soluble fraction (log2)” value is reported as -1.98.
In the case of “HMPDAENFRYRVPYTTEQNRLQYYEGDIRAENADKARDQVMQDAQKYFAQNTAFTPNYIDTDIISLD”, the “soluble fraction (log2)” value is reported as 0.034.
In the case of “HMNIKYDFPTNSPLEMMRNLFDSNSQIINDLKDGFAMANSLNEQGLANFFAERIDKHQFWSWQLSASL”, the “soluble fraction (log2)” value is reported as -0.399.
In the case of “HMERYFVLVIYDIVDNKKRLKLSKYLLGYGIRVQKSAFEMMITKEKYNKLIKELPTYIEEGEDSIRLY”, the “soluble fraction (log2)” value is reported as 0.132.
With “HMAESTRSRILNAAIEMMETGGESSVRLSAIAEALGIKEPSIYHHFTNRTELVNAAYIEWYW” the “soluble fraction (log2)” value was -0.0152.
With “HMTKAEVLLDLQQRIISEEFLPGSWLVERDLSSEYGLSRTPIREILNKLVILGLISVQKNRGYQVR” the “soluble fraction (log2)” value was -1.43.
In the case of “HMPVRIYEISKKLGLENKEVLATAKSLGIAAAKVPSSSLDKITAEYLEEEILKSHPEVAARLK”, the “soluble fraction (log2)” value is reported as 0.329.
For “HMKFPNVGENLRLLRQEMGISLDKASKMTGVSKAMLGQIERGESSPTVSTLWKISSGFKINFTTLLSE”, the “soluble fraction (log2)” value was -2.38.
For “HMDTMINLIGLNLKKAKKELSNLGVNVKKVRYKKSSVYDEGVVIDQSIEAGRNIKNGDFITITVSSGKA”, the “soluble fraction (log2)” value was 0.428.
For “HMAGITLHAEEGRVRIRSQSEGLVKVLDAMGREQASWPLRSKGWWFFLTEGWAPGTYFVKTESGETQRFLV”, the “soluble fraction (log2)” value was 0.0535.
With “HMPEVTMSYSARNQVVSFSKATQYEIVDEFGTVVLRGVGNQATLRYLSRGDYFVNFGAGTEVLKK” the “soluble fraction (log2)” value was 0.000609.
For “HMTSNKTVPYSELKGLISTGKIEYVGIGNTQIRAVSKSGAGIVTYTARRVIPDDTLIPELEKNGIAYGGI”, the “soluble fraction (log2)” value was -0.108.
In the case of “HMTPQVTVPDVTGQSFASAKQVLESLGLTVKQQGSTGENDKVIGQNPTSGNADKGATITLTTQDS”, the “soluble fraction (log2)” value is reported as 0.343.
With “HMGRWQPSTSAKQHGESALLLERLLHLERLTVSEAFHVLTINHRLNLSLPEYRSLLAVVQLPK” the “soluble fraction (log2)” value was -1.57.
For “HMEAKTSNPDYHARLGLTEGEGNDSALGVSVKAAEGGFGLLFGNKVGSDQLVRFANEDQVWLVNRALS”, the “soluble fraction (log2)” value was 0.0188.
In the case of “HMETLEDHRKKTRQQLFDALSHLLQTSTFESLTMAKIAEEAGVGRTAVYNHFQDKEALLLAFITYETGQ”, the “soluble fraction (log2)” value is reported as -1.05.
With “HMNEPITIALREAEEAANKILNEGVHSVELSPQNGYVRRLQHELIARYGLTSASRGSDPSRRVSVGAN” the “soluble fraction (log2)” value was -0.212.
With “HMGKDIYLTSGWVEKFDELNEFSNSVDNYDRLNQFGMYENAIIGDTGVIKITDEMIFDLYEKIQVPVEAGP” the “soluble fraction (log2)” value was -0.185.
In the case of “HMSDGHLIKVLEVLDGGEAFLGRTANGGTARFSLGQLADIRRGSVVFVSEDRWEVVPDSAWPEI”, the “soluble fraction (log2)” value is reported as -0.528.
With “HMVRGNLAEELLKLREEEGISFQEAGARSGIARSTISQVVNQGLRLKPNQEESLWRVIEEVRGVKER” the “soluble fraction (log2)” value was 0.046.
With “HMEFDSLINYEVKKKETLFSISKKFKIEINDLLSFNTELKNNKLKKNSIIIIPLKKKIVESQNFEKQKIID” the “soluble fraction (log2)” value was -1.37.
In the case of “HMPELSNNLDRDKVALKNFNESLKDGLTPAEAYANHLTNVSKAAQEAARQSNGLPVDIDKYHNSQLAASMA”, the “soluble fraction (log2)” value is reported as 0.273.
In the case of “HMEKELVSDFASRISTARSSKGWNHAELGKRMAETVNVIKSAESGKPPTDSVVKKLERVLGITLMEV”, the “soluble fraction (log2)” value is reported as -0.17.
For “HMQASTGNVNTETLNLRKEASTSADILKLLSQGDEVEIVSESNGWYKVKYKDTEGFVSKEYITVN”, the “soluble fraction (log2)” value was 0.245.
For “HMGPLDIAQLKSDFLGGDAQLARRAWDQLATKAGDEGRDFLISSLGSSDPQIRNRVALGIHES”, the “soluble fraction (log2)” value was 0.0489.
With “HMLPISGDDRDALDMAALILKQYDSLPILKEFANVVTKLQTVLDGVVSNSIEARRQMIQFEE” the “soluble fraction (log2)” value was -0.0336.
With “HMRTVLSDETYLRIREMLLTHDIAPGERINIDALARELDVSQTPVREALARLESEDLVTKEPLRGYTATK” the “soluble fraction (log2)” value was -0.017.
With “HMAVRLADMAAEKIRKMIIENKFDAGEPLSEMRLAEMFNVSRTPIREAIAILEQEGLLTTVHGKGAFIS” the “soluble fraction (log2)” value was -0.367.
In the case of “HMGSLKEKIVLLEKLYQQNPSEEIKLLLINTYQLNHQYIQARKLFFTLTPEQKEKLPLASEFLIFL”, the “soluble fraction (log2)” value is reported as -0.871.
With “HMGHRQRRARARNRSMLEDIPGLGPKRRQQLLRQFGGLPQLMRAGVAELSQVPGISDSLARKIHAELHPES” the “soluble fraction (log2)” value was -1.77.
With “HMATEPLQPRVEVLGSTLATTNGARIVGVYDMSGREVSATQLSKGVYIVKVTNGSVTATQKVFI” the “soluble fraction (log2)” value was 0.112.
In the case of “HMISFHEYLTQLLDEKGLTKAQVITDSNIQKNYGYQIFDGSKTPSRDKVIAIALAMQLTLDEANRLLHLSN”, the “soluble fraction (log2)” value is reported as -1.47.
With “HMQRADYLILYYIKMQAEQHPDSKVYLADLAAVMGLKVTELSKAVEKLQDNGFVAWKTDREAGRTYVELS” the “soluble fraction (log2)” value was -1.31.
For “HMSGPSDRDLFDEALALLSGSGREPDYHEARIRLGTLVEQFPESKWAEGAKALLSMLDRVSALQV”, the “soluble fraction (log2)” value was 0.246.
